Measured values taken from PMC9864776, “Synthesis of Novel Polymer-Assisted Organic-Inorganic Hybrid Nanoflowers and Their Application in Cascade Biocatalysis” (Molecules, 2023).

Substrate: OC[C@H]1OC(O)[C@H](O)[C@@H](O)[C@@H]1O
Assay: purified protein
Assay type: biochemical, Aspergillus niger
Details: apparent Km of the whole cascade with free HRP, glucose 50-175 µM (all below Km), TMB 2 mM, 0.2 M acetate buffer (pH 4 in the standard assay), 20-23 °C, free enzymes

B1: glucose oxidase (GOx), Aspergillus niger type VIII (Aspergillus niger) (protein)
chain: LPHYIRSNGIEASLLTDPKDVSGRTVDYIIAGGGLTGLTTAARLTENPNISVLVIESGSYESDRGPIIEDLNAYGDIFGSSVDHAYETVELATNNQTALIRSGNGLGGSTLVNGGTWTRPHKAQVDSWETVFGNEGWNWDNVAAYSLQAERARAPNAKQIAAGHYFNASCHGVNGTVHAGPRDTGDDYSPIVKALMSAVEDRGVPTKKDFGCGDPHGVSMFPNTLHEDQVRSDAAREWLLPNYQRPNLQVLTGQYVGKVLLSQNGTTPRAVGVEFGTHKGNTHNVYAKHEVLLAAGSAVSPTILEYSGIGMKSILEPLGIDTVVDLPVGLNLQDQTTATVRSRITSAGAGQGQAAWFATFNETFGDYSEKAHELLNTKLEQWAEEAVARGGFHNTTALLIQYENYRDWIVNHNVAYSELFLDTAGVASFDVWDLLPFTRGYVHILDKDPYLHHFAYDPQYFLNELDLLGQAAATQLARNISNSGAMQTYFAGETIPGDNLAYDADLSAWTEYIPYHFRPNYHGVGTCSMMPKEMGGVVDNAARVYGVQGLRVIDGSIPPTQMSSHVMTVFYAMALKISDAILEDYASMQ
notes: commercial native enzyme, Merck/Sigma Aldrich, type VIII; free in solution, together with HRP
Km: 1198 µM
